{"source": "patent US20040214771", "molecular_target": "T1, recombinant purified full length SRF (pET-15b, histidine tag, expressed in BL21)", "T1 chain": "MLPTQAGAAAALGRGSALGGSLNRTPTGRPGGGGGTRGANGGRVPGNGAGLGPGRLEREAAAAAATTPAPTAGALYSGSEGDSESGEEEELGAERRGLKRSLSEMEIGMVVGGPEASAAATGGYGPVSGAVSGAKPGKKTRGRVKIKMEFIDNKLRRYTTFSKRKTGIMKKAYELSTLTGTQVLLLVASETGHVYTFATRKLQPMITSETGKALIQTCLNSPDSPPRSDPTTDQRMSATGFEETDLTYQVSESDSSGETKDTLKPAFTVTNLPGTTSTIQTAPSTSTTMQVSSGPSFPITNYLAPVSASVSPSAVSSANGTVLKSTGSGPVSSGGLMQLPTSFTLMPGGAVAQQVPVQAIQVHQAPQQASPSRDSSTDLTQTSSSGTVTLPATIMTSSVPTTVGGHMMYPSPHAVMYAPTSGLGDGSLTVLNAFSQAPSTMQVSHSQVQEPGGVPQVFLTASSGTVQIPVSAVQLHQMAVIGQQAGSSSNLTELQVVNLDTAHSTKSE"}
{"protein": "active recombinant human caspase 3 (BD PharMingen) (protein) SGISLDNSYKMDYPEMGLCIIINNKNFHKSTGMTSRSGTDVDAANLRETFRNLKYEVRNKNDLTREEIVELMRDVSKEDHSKRSSFVCVLLSHGEEGIIFGTNGPVDLKKITNFFRGDRCRSLTGKPKLFIIQACRGTELDCGIETDSGVDDDMACHKIPVEADFLYAYSTAPGYYSWRNSKDGSWFIQSLCAMLKQYADKLEFMHILTRVNRKVATEFESFSFDATFHAKKQIPCIVSMLTKELYFYH", "values": [{"measurement": "in vitro cleavage of SRF, read by Western blot", "value": "Caspase 3 cleaved SRF in a time-dependent manner"}]}
